Common to all, as to conditions: both partners purified
The target of test [1] is VARV B7 (Variola virus, India-1967, UniProt Q76QZ2). In words: SPR. A general note: SPR reads the build-up and loss of mass on a sensor chip optically.
The target of test [2] is CPXV CPXV199 (Cowpox virus, Brighton Red, UniProt Q8QMP6). The test can be described thus: SPR.
Test [3] concerns the target MPXV B6 (T20-H279) (Monkeypox virus, clade II …). In words: ELISA. (In general: In an ELISA, binding on a coated surface is turned into a signal by an enzyme label.)
In test [4] the target is MPXV B6 SCR1-2-3-4 (T20-N241) (Monkeypox virus, clade II …). The test can be described thus: ELISA.
For test [5], the target named is MPXV B6 SCR1-2-3 (T20-K185) (Monkeypox virus, clade II …). The test can be described thus: ELISA.
For test [6], the target named is MPXV B6 SCR1-2 (T20-E129) (Monkeypox virus, clade II …). The test can be described thus: ELISA.
Test [7] has as its target MPXV B6 protein (Monkeypox virus, clade II …). The test can be described thus: SPR; antibodies (0.5 ug/mL) […]; BIAcore 8K, 25 °C, […]; 1:1 Langmuir model.

Our source for the binding result and Kd values is PMC11143242 (Nature Communications, 2024).

B1: hMB668 (antibody, V domains shown)
VH: QVQLVQSGAEVKKPGSSVKVSCKSSGGTFSDYAINWVRQAPGQGLEWMGRILPIVGVPNYAQKFQGRVTITADKSSSTAYKEVSGLRSEDTAVYYCARRSGINGHGLDVWGQGTTVIVSS
VL: DIVMTQSPLSLPVTPGEPASISCRSSQSLLNTNGYNYLEWYLHKPGQSPQLLIYLGSHRASGVPDRFSGSGSGTDFTLKISRAEPEDVGVYYCMQTLQTQGYTFGQGTKLEIK
notes: also called MAb hMB668; source: Expi293F, transient transfection, purified (Protein A, gel filtration)
The term Kd denotes the free concentration of one partner at which half of the binding sites on the other are occupied at equilibrium, for simple one-to-one binding. A low value points to a tighter complex. As to B1, the binding result in test [1], in test [2], in test [3], in test [4], in test [5] and in test [6] was “binds” throughout. The affinity in test [7], expressed as Kd, was 6.2 nM.

B2: hMB621 (antibody, V domains shown)
VH: QVQLVQSGGGVVQPGRSLRLSCVASGFSISTYPLHWVRQAPGKGLEWVAVISHDGRNKYYADSVKGRFSISRDNSKNTVYLQMNSLRVEDTAVYYCARAYPYAFDVWGQGTLVTVSS
VL: EIVLTQSPATLSVSPGETATLSCRASQSVRNDLAWYQQKPGQAPRLLIYGASTRASGIPARFSGSGSGTEFTLTISSLQSEDFAIYYCQQYKDWPPWTFGQGTKVEIK
Consider B2, for which the binding result in test [1], in test [2], in test [3], in test [4] and in test [5] was “binds” in each case. This molecule yielded a Kd in test [7] of 1.9 nM.
